# Earlier results, collected in paper PMC3814599.
# Values joined by “and” are separate entries in the source; they are usually repeats but may differ in a detail not shown here. Equal entries are not always repeated.
# Molecular target: HIV-1 capsid (CA) NTD (Human immunodeficiency virus 1) (UniProt O93182)
# Sequence of NUP358 (P49792 whole entry): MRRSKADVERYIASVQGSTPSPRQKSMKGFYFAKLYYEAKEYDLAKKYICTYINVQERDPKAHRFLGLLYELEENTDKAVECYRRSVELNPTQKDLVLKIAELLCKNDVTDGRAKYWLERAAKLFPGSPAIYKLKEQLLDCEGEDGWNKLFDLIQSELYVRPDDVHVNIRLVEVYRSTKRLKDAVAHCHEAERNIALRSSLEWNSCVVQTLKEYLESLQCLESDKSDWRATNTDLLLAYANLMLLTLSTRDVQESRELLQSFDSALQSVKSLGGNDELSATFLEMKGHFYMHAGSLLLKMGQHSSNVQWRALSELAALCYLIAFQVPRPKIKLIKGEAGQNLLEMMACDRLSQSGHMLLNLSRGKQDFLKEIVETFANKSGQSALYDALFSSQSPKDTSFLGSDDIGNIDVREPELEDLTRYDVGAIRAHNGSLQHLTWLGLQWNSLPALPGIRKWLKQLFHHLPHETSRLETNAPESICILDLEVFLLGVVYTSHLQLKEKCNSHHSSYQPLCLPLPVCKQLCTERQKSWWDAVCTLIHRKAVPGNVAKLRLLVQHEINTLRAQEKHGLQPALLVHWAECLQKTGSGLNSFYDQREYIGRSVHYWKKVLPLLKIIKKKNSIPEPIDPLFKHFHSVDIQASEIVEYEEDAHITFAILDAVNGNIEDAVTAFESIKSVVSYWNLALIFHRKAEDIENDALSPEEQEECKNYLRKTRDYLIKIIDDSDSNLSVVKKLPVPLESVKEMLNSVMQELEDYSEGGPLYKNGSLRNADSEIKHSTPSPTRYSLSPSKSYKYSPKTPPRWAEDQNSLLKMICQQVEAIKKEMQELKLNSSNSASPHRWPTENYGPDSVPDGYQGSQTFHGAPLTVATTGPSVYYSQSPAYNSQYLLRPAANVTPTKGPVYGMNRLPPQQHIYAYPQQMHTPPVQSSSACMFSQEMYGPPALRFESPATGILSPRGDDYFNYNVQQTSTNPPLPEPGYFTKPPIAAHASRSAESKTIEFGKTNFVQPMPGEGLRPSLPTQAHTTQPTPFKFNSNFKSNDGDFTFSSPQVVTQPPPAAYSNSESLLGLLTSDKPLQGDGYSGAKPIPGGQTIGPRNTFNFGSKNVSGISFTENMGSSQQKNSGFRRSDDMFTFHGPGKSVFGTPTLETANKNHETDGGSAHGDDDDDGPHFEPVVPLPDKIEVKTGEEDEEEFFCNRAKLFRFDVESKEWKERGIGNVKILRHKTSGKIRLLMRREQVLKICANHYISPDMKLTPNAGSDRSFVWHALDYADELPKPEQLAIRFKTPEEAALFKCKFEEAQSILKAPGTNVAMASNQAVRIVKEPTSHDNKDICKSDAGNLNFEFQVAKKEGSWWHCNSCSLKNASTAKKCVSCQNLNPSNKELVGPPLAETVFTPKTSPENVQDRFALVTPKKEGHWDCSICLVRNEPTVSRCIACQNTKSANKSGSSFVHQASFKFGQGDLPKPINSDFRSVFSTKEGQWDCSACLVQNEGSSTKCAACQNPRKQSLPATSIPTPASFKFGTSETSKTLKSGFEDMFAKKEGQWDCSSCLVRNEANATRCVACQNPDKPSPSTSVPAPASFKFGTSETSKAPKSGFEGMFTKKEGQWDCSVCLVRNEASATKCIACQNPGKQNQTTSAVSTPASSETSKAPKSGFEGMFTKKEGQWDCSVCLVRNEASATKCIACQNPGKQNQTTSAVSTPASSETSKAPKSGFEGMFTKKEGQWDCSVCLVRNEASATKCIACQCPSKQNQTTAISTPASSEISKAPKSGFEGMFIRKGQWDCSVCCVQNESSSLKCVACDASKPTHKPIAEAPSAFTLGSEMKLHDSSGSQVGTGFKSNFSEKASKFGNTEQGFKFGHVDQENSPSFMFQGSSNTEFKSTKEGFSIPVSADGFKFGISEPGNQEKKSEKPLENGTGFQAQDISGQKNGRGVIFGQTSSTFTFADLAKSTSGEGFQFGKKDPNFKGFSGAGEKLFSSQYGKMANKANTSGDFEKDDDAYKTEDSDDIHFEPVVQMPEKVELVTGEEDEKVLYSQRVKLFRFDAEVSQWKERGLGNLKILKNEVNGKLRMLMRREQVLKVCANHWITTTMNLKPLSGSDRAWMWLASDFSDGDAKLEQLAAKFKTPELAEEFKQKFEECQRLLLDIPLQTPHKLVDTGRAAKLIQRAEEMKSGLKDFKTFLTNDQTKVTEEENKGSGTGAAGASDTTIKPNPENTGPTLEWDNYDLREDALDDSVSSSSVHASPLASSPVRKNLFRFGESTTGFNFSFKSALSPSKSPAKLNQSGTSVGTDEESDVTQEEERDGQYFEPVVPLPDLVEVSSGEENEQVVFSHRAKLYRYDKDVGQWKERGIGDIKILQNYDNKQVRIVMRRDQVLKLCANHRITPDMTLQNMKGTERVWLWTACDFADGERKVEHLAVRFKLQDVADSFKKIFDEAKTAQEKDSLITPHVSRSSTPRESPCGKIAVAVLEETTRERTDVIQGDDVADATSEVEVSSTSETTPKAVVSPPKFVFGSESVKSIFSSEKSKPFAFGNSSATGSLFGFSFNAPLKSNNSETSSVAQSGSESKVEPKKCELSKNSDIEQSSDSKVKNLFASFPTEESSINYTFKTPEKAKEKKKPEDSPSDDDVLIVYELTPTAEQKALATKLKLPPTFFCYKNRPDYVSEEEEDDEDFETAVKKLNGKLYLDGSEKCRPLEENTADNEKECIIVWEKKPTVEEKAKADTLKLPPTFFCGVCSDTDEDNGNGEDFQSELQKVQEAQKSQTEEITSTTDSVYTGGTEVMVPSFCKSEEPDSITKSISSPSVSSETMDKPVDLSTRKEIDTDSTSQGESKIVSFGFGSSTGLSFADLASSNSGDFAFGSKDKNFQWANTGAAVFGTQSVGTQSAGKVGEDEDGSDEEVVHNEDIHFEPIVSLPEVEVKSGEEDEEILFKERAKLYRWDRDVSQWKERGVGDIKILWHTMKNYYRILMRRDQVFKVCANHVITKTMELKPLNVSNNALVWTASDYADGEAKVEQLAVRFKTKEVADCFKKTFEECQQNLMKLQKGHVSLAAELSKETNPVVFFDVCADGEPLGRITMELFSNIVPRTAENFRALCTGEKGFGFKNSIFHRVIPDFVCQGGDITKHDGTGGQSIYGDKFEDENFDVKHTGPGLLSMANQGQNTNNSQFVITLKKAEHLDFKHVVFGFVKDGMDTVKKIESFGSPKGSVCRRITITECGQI
substance,measurement,value
NUP358 (from UniProt P49792),Kd,150 µM and 16 µM
